Experimental data from patent EP4480965A1 (Vect-Horus, dated 2024).
Like-named read-outs stand apart in the source and are kept apart here.

Columns and labels:
[1] = target: T1, rhesus monkey transferrin receptor fused to EGFP, expressed on CHO cells (rhesus monkey, UniProt H9EXL1 1-760); test: flow cytometry, CHO-rhTfR-EGFP cells, apparent Kd
T1 construct: also called rhTfR; rhesus monkey TfR; not shown: EGFP fused to the cytoplasmic end of the receptor

[2] = target: murine TfR expressed by murine neuroblastoma Neuro-2a cells (mouse, UniProt Q62351 1-763); test: cell-based or functional assay
[3] = target: T2, human transferrin receptor fused to EGFP, expressed on CHO cells (human, UniProt P02786 1-760); test: cell-based or functional assay
[4] = target: T3, mouse transferrin receptor fused to EGFP, expressed on CHO cells (mouse, UniProt Q62351 1-763); test: flow cytometry, CHO-mTfR-EGFP cells
T3 construct: whole, on cells; also called mTfR; mouse TfR

[5] = target: T2, human transferrin receptor fused to …; test: flow cytometry, CHO-hTfR-EGFP cells
[6] = target: T2, human transferrin receptor fused to …; test: flow cytometry, CHO-hTfR-EGFP cells, apparent Kd
[7] = target: T3, mouse transferrin receptor fused to …; test: flow cytometry, CHO-mTfR-EGFP cells, apparent Kd
[8] = target: T3, mouse transferrin receptor fused to …; test: flow cytometry, CHO-mTfR-EGFP cells, apparent Kd; remark: listed apart in the source
[9] = target: T4, mouse TfR ectodomain fused to a mouse IgG1 Fc fragment (mouse, UniProt Q62351 89-763); test: SPR (Biacore T200)
T4 construct: extracellular domain; produced in-house; not shown: mouse IgG1 Fc fragment
T4 sequence (Q62351 89-763): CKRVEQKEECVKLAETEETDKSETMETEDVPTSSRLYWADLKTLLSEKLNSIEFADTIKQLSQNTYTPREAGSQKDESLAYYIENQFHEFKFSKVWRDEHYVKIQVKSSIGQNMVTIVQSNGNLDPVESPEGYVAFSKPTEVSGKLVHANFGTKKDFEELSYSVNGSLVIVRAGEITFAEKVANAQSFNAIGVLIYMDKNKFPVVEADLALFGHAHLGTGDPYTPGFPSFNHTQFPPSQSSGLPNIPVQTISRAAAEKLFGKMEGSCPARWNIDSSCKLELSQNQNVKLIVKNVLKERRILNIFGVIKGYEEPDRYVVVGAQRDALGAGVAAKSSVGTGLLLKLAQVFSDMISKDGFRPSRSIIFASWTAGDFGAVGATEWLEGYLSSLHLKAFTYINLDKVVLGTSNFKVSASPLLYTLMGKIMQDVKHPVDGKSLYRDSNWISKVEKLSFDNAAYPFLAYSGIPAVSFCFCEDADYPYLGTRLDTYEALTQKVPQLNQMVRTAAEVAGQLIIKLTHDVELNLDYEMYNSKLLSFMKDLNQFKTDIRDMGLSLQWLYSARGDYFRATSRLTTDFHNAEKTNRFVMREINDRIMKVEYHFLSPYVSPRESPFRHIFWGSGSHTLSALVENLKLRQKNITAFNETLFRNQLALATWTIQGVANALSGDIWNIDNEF

T3 sequence (Q62351 whole entry, the tested form may be a part): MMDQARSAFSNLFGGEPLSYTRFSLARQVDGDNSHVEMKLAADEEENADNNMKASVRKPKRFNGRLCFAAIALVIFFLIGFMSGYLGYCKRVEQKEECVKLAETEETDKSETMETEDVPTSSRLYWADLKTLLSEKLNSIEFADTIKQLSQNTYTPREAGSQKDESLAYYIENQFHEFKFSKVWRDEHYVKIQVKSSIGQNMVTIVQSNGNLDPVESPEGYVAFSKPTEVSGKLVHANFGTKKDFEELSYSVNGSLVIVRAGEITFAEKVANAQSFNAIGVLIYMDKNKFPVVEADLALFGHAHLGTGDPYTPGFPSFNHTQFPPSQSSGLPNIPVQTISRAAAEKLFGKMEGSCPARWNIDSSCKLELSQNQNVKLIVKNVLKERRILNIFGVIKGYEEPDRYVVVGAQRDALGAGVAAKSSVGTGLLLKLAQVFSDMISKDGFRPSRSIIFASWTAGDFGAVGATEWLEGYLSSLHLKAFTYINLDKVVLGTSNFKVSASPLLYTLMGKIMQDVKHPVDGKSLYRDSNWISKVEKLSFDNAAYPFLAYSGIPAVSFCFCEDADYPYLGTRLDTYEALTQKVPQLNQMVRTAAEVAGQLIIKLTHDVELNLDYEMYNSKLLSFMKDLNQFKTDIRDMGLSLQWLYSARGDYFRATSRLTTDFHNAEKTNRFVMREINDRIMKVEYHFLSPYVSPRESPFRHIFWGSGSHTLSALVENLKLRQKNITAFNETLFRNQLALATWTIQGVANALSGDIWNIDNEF
T2 sequence (P02786 whole entry, the tested form may be a part): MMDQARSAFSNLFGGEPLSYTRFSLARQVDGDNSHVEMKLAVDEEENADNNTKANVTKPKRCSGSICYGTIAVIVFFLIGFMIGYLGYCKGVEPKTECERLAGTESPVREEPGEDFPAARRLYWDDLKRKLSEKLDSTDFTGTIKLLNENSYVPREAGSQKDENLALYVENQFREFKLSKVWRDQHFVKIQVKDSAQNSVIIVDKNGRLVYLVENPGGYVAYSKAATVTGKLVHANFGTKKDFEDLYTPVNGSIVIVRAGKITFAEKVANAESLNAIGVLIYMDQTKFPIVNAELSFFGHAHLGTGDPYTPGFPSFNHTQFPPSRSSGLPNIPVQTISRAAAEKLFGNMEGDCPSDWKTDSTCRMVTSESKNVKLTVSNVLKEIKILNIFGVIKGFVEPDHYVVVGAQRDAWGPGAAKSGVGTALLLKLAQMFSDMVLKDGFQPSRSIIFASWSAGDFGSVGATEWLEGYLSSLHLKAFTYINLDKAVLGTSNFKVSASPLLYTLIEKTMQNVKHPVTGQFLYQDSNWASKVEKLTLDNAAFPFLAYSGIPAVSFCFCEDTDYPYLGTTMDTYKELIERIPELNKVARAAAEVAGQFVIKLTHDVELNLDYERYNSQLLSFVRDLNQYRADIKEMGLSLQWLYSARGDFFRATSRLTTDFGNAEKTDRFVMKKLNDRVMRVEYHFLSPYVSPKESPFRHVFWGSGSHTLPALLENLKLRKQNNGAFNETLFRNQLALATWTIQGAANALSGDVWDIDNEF
T1 sequence (H9EXL1 entry or part of it limits assumed, form in doubt): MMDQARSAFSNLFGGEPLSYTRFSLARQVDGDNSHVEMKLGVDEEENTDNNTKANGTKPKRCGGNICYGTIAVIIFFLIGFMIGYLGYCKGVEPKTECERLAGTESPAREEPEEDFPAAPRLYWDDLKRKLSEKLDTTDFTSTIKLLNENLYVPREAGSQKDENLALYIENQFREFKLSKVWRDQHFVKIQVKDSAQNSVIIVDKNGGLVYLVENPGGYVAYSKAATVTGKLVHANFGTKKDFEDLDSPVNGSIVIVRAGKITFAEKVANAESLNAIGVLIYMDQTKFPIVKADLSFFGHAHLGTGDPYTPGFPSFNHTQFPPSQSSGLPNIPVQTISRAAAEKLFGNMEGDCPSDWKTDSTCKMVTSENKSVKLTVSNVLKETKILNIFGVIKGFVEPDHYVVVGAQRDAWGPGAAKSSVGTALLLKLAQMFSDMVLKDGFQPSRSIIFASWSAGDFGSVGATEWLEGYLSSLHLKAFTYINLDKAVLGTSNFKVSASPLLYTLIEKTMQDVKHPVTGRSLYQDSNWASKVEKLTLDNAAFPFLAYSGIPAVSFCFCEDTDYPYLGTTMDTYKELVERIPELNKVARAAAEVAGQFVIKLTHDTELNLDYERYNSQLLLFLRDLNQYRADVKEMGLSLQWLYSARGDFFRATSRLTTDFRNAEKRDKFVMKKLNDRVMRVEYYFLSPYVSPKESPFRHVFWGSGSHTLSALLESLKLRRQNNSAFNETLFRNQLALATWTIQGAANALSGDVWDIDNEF
murine TfR expressed by murine neuroblastoma Neuro-2a cells, sequence (Q62351 whole entry, the tested form may be a part): as the sequence (Q62351 whole entry, the tested form may be a part) above

B1: B8^V9 (VHH)
VHH: EVQLVESGGGVVQPGGSLRLSCAASGEIFSINFMRWYRQAPGKQREWVAGFTRDGSKNYPDSAKGRFTISRDNAKNTVYLQIDSLKPEDTAVYYCYMLDTWGQGTQVTVSS
With B1 the Kd [1] was 24 nM.

B2: C5-siSOD1m-5'VP (other)
VHH: EVQLVESGGGVVQPGGSLKLSCVASGTDFSINFIRWYRQAPGKQREFVAGFTATGNTNYADSMKGRFTISRDNTKNAVYLQIDSLKPEDTAVYYCYMLDKWGQGTQVTVSSAAAEQKLISEEDLNGAAHHHHHHGS
modifications: siSOD1m-5'VP siRNA (SEQ ID NOs 465/466) linked by a stable linker to the tag
For B2, the “mean IC50 of mSOD1 mRNA downregulation, free uptake on Neuro-2a cells” value [2] was 7.4 nM.

B3: VHH A-siGFPst1 bioconjugate (other)
VHH: EVQLVESGGGVVQPGGSLKLSCVASGTDFSINFIRWYRQAPGKQREFVAGFTATGNTNYADSMKGRFTISRDNTKNAVYLQIDSLKPEDTAVYYCYMLDKWGQGTQVTVSSAAAEQKLISEEDLNGAAHHHHHHGS
modifications: siGFPst1 siRNA (3' end of sense strand, DBCO) clicked to 3-azido-1-propanamine on the Gln of the C-terminal Q-tag
For B3, the “IC50 of the reduction of GFP protein levels, 6-hour pulse and chase to 120 hrs” value [3] was 1.24 nM and the “IC50 of the reduction of GFP protein levels, free uptake 120 hrs” value [3] was 2.73 nM.

B4: VHH A6 (C5^V6) (VHH)
VHH: EVQLVESGGGVVQPGGSLKLSCVASGTDFSINFIRWYRQAPGKQREFVAGFTATGNTNYADSMKGRFTISRDNTKNAVYLQIDSLKPEDTAVYYCYALDKWGQGTQVTVSS
B4: binds [4]; binds [5].

B5: E9 (VHH)
VHH: EVQLVESGGGLVQPGGSLRLSCVSSATFGGYSMGWFRQAPGKEREFVAAITWNGGIIKDYADGVMGRFTISRNSALNTVYLQMDSLKSTDTGVYVCAGDRTYYAGGYVPTSEREYAFWGQGTQVTVSS
B5 gave a Kd [1] of 1540 nM, a Kd [6] of 1290 nM and a Kd [7] of 1310 nM.

B6: 13C3-LC-VHH A (bispecific antibody)
heavy: QVQLQQSGPELVRPGVSVKISCKGSGYTFTDYAMHWVKQSHAKSLEWIGVISTKYGKTNYNQKFKGKATMTVDKSSSTAYMELARLTSEDSAIYYCARGDDGYSWGQGTSVTVSSAKTTPPSVYPLAPGSAAQTNSMVTLGCLVKGYFPEPVTVTWNSGSLSSGVHTFPAVLQSDLYTLSSSVTVPSSTWPSETVTCNVAHPASSTKVDKKIVPRDCGCKPCICTVPEVSSVFIFPPKPKDVLTITLTPKVTCVVVDISKDDPEVQFSWFVDDVEVHTAQTQPREEQFNSTFRSVSELPIMHQDWLNGKEFKCRVNSAAFPAPIEKTISKTKGRPKAPQVYTIPPPKEQMAKDKVSLTCMITDFFPEDITVEWQWNGQPAENYKNTQPIMDTDGSYFVYSKLNVQKSNWEAGNTFTCSVLHEGLHNHHTEKSLSHSPG
light: DVVMTQTPLSLPVSLGDQASISCRSGQSLVHSNGNTYLHWYLQKPGQSPKLLIYTVSNRFSGVPDRFSGSGSGSDFTLKISRVEAEDLGVYFCSQNTFVPWTFGGGTKLEIKRADAAPTVSIFPPSSEQLTSGGASVVCFLNNFYPKDINVKWKIDGSERQNGVLNSWTDQDSKDSTYSMSSTLTLTKDEYERHNSYTCEATHKTSTSPIVKSFNRNECSGSGGGGGMAEVQLVESGGGVVQPGGSLKLSCVASGTDFSINFIRWYRQAPGKQREFVAGFTATGNTNYADSMKGRFTISRDNTKNAVYLQIDSLKPEDTAVYYCYMLDKWGQGTQVTVSSAAA
In the case of B6, the Kd [8] is reported as 106 nM.

B7: VHH A17 (C5^V17) (VHH)
VHH: EVQLVESGGGVVQPGGSLKLSCVASGTDFSINFIRWYRQAPGKQREFVAGFTATGNTNYADSMKGRFTISRDNTKNAVYLQIDSLKPEDTAVYYCYMIDKWGQGTQVTVSS
B7: binds [4]; binds [5].

B8: VHH A19 (C5^V19) (VHH)
VHH: EVQLVESGGGVVQPGGSLKLSCVASGTDFSINFIRWYRQAPGKQREFVAGFTATGNTNYADSMKGRFTISRDNTKNAVYLQIDSLKPEDTAVYYCYMLEKWGQGTQVTVSS
B8: binds [4].

B9: VHH D (H3) (VHH)
VHH: EVQLVESGGGEVQPGGSLKLSCVASGTDFSINFVRWYRQRPGKQREWVAGFTANGDTNYPDSMKGRFTISRDNAKNTVYLQINSLKSEDTAVYYCYMLDNWGQGTQVTVSS
Binder B9 has a kon [9] of 5.81e+06 M⁻¹ s⁻¹.
